These results are taken from patent US20160222395.

Series [1] concerns ALS2_T1 TALE nuclease right subunit (synthetic construct). Description: cell_activity. The conditions noted are these: yeast beta-galactosidase recombination assay, 37 C, as pair with left subunit; 0.86 (0.02) at 30 C; also cleaves in N. benthamiana leaves (T7EI).
Series [2] deals with ALS2_T1 TALE nuclease left subunit (synthetic construct). Kind of series: cell_activity. The following applies: yeast beta-galactosidase recombination assay, 37 C, as pair with right subunit; 0.86 (0.02) at 30 C; also cleaves in N. benthamiana leaves (T7EI).

“ACAGTACGACCCAGTCT (double strand) [ALS2_T1 right target half-site]”: the activity (relative to I-SceI (max 1.0)) in series [1] stood at 0.97.
Consider “TAGCTTGTTCCACATTT (double strand) [ALS2_T1 left target half-site]”, for which the activity (relative to I-SceI (max 1.0)) in series [2] was determined as 0.97.
